Series [1] is described as follows: Relative enzymatic activity of GLD (DCIP/1-m-PMS, plate reader, yeast culture supernatant) with 1,10-phenanthroline present. It counts as biochemical. Particulars: site-specific mutants, inhibitor final concentration 1 mM. The gist of the method:
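Inhibitor at 1 mM final substitutes for the methanol in the reagent, and the sample rate is expressed as % of the inhibitor-free blank. Rates come from ΔA600/min of DCIP with glucose and 1-m-PMS at pH 7.0, using supernatants of YPD-grown yeast clones (24 h, 30° C.).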

Series [2] can be described thus: Relative enzymatic activity of GLD (DCIP/1-m-PMS, plate reader, yeast culture supernatant) with proflavin hydrochloride present. Format: biochemical. Particulars: site-specific mutants, inhibitor final concentration 1 mM. The gist of the method: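 Culture supernatant diluted and mixed with reagent of phosphate buffer pH 7.0, 1.0 M D-glucose, 3 mM DCIP, 3 mM 1-m-PMS and methanol (0.1:1:0.14:0.2:0.06). DCIP absorbance decrease at 600 nm followed; proflavin hydrochloride in methanol replaced methanol at 1 mM final. Activity expressed as % of inhibitor-free blank.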

Where “and” joins values, the source holds several entries; their conditions need not be identical. Identical values can stand only once.

The values that follow come from patent US8969060B2, “Modified glucose dehydrogenase” (Ikeda Food Research Co., Ltd., priority 2011, dated 2015).

B1: F432R: modified GLD: SEQ ID NO: 1 with substitution F432R (protein, listed as Aspergillus terreus)
chain: MLGKLSFLSALSLAVAAPLSNSTSAKYDYIVIGGGTSGLAVANRLSEDPNVNVLILEAGGSVWNNPNVTNVDGYGLAFGSDIDWQYQSVNQPYGGNLSQVLRAGKALGGTSTINGMAYTRAEDVQIDAWETIGNTGWTWKNLFPYYRKSENFTVPTKSQTSLGASYEAGAHGHEGPLDVAFTQIESNNLTTYLNRTFQGMGLPWTEDVNGGKMRGFNLYPSTVNLEEYVREDAARAYYWPYKSRPNLHVLLNTFANRIVWDGEAHDGHITASGVEITSRNGTVRVINAEKEVIVSAGALKSPAILELSGIGNPSVLDKHNIPVKVNLPTVGENLQDQVNSHMDASGNTSISGTKAVSYPDVYDVFGDEAESVAKQIRANLKQYAADTAKANGNIMKAADLERLFEVQYDLIFKGRVPIAEVLNYPGSATSVRAEFWALLPFARGSVHIGSSNPAEFPVINPNYFMLDWDAKSYVAVAKYIRRSFESYPLSSIVKESTPGYDVIPRNASEQSWKEWVFDKNYRSNFHPVGTAAMMPREIGGVVDERLNVYGTTNVRVVDASVLPFQVCGHLVSTLYAVAERAADLIKADAGRR
modifications: SIGNAL (1)..(19)
Take B1: the “Relative Activity [%] 1,10-Phenanthroline” value in series [1] is 86.2% and 94.2%. The “Relative Activity [%] Proflavin hydrochloride” value in series [2] was 73.7% and 72.6%.

B2: G426A: modified GLD: SEQ ID NO: 1 with substitution G426A (protein, listed as Aspergillus terreus)
chain: MLGKLSFLSALSLAVAAPLSNSTSAKYDYIVIGGGTSGLAVANRLSEDPNVNVLILEAGGSVWNNPNVTNVDGYGLAFGSDIDWQYQSVNQPYGGNLSQVLRAGKALGGTSTINGMAYTRAEDVQIDAWETIGNTGWTWKNLFPYYRKSENFTVPTKSQTSLGASYEAGAHGHEGPLDVAFTQIESNNLTTYLNRTFQGMGLPWTEDVNGGKMRGFNLYPSTVNLEEYVREDAARAYYWPYKSRPNLHVLLNTFANRIVWDGEAHDGHITASGVEITSRNGTVRVINAEKEVIVSAGALKSPAILELSGIGNPSVLDKHNIPVKVNLPTVGENLQDQVNSHMDASGNTSISGTKAVSYPDVYDVFGDEAESVAKQIRANLKQYAADTAKANGNIMKAADLERLFEVQYDLIFKGRVPIAEVLNYPASATSVFAEFWALLPFARGSVHIGSSNPAEFPVINPNYFMLDWDAKSYVAVAKYIRRSFESYPLSSIVKESTPGYDVIPRNASEQSWKEWVFDKNYRSNFHPVGTAAMMPREIGGVVDERLNVYGTTNVRVVDASVLPFQVCGHLVSTLYAVAERAADLIKADAGRR
modifications: SIGNAL (1)..(19)
Turning to B2, in series [1], the “Relative Activity [%] 1,10-Phenanthroline” value is 68.7%. In addition, in series [2], the “Relative Activity [%] Proflavin hydrochloride” value came out at 51.2%.

B3: G426C: modified GLD: SEQ ID NO: 1 with substitution G426C (protein, listed as Aspergillus terreus)
chain: MLGKLSFLSALSLAVAAPLSNSTSAKYDYIVIGGGTSGLAVANRLSEDPNVNVLILEAGGSVWNNPNVTNVDGYGLAFGSDIDWQYQSVNQPYGGNLSQVLRAGKALGGTSTINGMAYTRAEDVQIDAWETIGNTGWTWKNLFPYYRKSENFTVPTKSQTSLGASYEAGAHGHEGPLDVAFTQIESNNLTTYLNRTFQGMGLPWTEDVNGGKMRGFNLYPSTVNLEEYVREDAARAYYWPYKSRPNLHVLLNTFANRIVWDGEAHDGHITASGVEITSRNGTVRVINAEKEVIVSAGALKSPAILELSGIGNPSVLDKHNIPVKVNLPTVGENLQDQVNSHMDASGNTSISGTKAVSYPDVYDVFGDEAESVAKQIRANLKQYAADTAKANGNIMKAADLERLFEVQYDLIFKGRVPIAEVLNYPCSATSVFAEFWALLPFARGSVHIGSSNPAEFPVINPNYFMLDWDAKSYVAVAKYIRRSFESYPLSSIVKESTPGYDVIPRNASEQSWKEWVFDKNYRSNFHPVGTAAMMPREIGGVVDERLNVYGTTNVRVVDASVLPFQVCGHLVSTLYAVAERAADLIKADAGRR
modifications: SIGNAL (1)..(19)
With B3, the “Relative Activity [%] 1,10-Phenanthroline” value in series [1] came out at 78.0%. Further, in series [2], the “Relative Activity [%] Proflavin hydrochloride” value is recorded as 64.1%.
